In patent US6884600B1, “Protein phosphatase-1 catalytic subunit interactions” (Medical Research Council London, priority 1996, dated 2005):

What was measured:
PP1c = molecular target: T1, PP1c (Oryctolagus cuniculus, UniProt P62143); experiment: Glycogen synthase phosphatase activity of PP1c; type: biochemical, rabbit
T1 construct: from tissue; host or cells: rabbit skeletal muscle (PP1G dissociated with LiBr)
Procedure: The glycogen synthase phosphatase activity of PP1c was measured after a 15 minute incubation at 30° C. with the indicated concentrations of M110-(M1-F38) and M110-(M1-E309). Similar results were obtained in three different experiments.
^32P-labelled rabbit skeletal muscle phosphorylase a (containing 1.0 mol phosphate per mol subunit) was prepared by phosphorylation with phosphorylase kinase, ^32P-labelled rabbit skeletal muscle glycogen synthase (containing 1.5 mol/mol subunit in the sites 3 region) was prepared by phosphorylation with glycogen synthase kinase-3 [24]). ^32P-labelled chicken gizzard MLC20 and ^32P-labelled chicken gizzard heavy meromyosin (containing 1.0 mol phosphate per mol subunit) were prepared by phosphorylation with smooth muscle myosin light chain kinase. The dephosphorylation of phosphorylase a (10 μM), glycogen synthase (1 μM) and MLC20 (1 μM) and heavy meromyosin (1 μM) was carried out as in [24]. One unit of activity (U) was that amount which released […] of phosphate in one minute.

myosin = molecular target: T2, myosin (Gallus gallus, UniProt P10587); experiment: Myosin binding assay (pelleting with myosin); set-up: species or system chicken; conditions: myosin 1 μM, 15 min 0° C.
T2 construct: from tissue; host or cells: chicken gizzard
T2 sequence (P10587 whole entry): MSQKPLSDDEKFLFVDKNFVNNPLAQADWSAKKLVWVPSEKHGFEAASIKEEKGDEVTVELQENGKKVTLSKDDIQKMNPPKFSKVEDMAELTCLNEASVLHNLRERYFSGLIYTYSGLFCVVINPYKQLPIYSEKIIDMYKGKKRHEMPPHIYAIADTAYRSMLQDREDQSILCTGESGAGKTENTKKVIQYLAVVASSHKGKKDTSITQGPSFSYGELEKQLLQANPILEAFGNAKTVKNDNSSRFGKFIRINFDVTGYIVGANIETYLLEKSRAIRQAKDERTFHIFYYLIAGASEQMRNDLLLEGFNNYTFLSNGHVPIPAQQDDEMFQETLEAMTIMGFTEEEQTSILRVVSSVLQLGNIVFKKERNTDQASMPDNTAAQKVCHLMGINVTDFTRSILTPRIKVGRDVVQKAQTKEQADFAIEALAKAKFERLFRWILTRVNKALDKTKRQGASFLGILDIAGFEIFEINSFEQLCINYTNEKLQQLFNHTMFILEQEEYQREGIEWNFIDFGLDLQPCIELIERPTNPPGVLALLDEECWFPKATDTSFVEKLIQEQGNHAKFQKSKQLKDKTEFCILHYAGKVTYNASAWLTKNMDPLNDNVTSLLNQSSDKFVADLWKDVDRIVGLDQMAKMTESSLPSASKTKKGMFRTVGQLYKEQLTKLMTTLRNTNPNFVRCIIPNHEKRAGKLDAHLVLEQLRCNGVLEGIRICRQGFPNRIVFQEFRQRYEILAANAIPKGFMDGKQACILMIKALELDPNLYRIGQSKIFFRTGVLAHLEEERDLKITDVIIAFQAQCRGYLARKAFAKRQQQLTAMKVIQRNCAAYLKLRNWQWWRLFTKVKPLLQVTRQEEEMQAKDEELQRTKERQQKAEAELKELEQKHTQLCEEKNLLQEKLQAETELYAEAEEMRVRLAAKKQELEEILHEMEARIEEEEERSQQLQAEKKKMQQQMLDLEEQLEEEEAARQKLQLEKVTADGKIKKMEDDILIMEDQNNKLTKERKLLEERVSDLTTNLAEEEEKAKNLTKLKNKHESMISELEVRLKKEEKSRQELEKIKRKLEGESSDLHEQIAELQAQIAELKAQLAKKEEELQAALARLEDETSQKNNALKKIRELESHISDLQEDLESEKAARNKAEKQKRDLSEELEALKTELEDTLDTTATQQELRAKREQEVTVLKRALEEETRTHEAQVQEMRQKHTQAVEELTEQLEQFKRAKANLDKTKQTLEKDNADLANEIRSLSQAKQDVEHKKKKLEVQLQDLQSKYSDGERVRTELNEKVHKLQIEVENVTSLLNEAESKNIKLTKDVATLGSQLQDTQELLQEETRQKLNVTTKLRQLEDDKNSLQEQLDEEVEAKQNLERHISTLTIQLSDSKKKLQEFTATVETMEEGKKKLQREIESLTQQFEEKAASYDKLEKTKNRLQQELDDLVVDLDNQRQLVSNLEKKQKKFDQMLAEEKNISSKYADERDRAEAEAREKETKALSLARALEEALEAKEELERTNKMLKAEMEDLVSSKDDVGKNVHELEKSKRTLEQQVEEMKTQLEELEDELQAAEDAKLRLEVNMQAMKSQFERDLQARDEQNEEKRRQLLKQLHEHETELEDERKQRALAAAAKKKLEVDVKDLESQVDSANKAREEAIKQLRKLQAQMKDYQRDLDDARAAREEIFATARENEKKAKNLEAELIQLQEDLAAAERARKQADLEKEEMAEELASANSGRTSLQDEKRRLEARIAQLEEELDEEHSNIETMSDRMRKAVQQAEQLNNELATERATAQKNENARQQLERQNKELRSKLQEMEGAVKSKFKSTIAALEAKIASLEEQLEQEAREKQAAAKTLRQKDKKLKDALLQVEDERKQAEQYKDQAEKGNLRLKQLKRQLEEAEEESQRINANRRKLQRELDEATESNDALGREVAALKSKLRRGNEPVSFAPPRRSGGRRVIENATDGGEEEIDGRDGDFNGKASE
T2 sequence (P02612 whole entry partner): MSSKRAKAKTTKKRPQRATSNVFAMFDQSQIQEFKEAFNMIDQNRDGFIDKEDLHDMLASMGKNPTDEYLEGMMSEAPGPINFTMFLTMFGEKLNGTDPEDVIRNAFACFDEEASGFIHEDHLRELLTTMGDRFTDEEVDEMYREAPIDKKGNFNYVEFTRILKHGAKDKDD
T2 sequence (P02607 whole entry partner): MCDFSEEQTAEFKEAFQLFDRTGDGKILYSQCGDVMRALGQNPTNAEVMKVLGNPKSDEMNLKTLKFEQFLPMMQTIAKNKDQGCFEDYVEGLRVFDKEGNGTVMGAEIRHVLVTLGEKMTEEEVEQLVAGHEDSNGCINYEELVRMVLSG
In short: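 PP1M, PP1c, PP1M(ΔM21) or M110 fragments (30 nM; M110 fragments and M21 at 100 nM) incubated 15 min at 0° C with 1 μM myosin in 10 mM Hepes pH 7.5, 50 mM KCl, 5 mM MgCl2, then centrifuged 2 min at 13,000×g. Supernatant, pellet and total analysed by immunoblot or P-light chain phosphatase activity.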

T1 sequence (P62143 whole entry): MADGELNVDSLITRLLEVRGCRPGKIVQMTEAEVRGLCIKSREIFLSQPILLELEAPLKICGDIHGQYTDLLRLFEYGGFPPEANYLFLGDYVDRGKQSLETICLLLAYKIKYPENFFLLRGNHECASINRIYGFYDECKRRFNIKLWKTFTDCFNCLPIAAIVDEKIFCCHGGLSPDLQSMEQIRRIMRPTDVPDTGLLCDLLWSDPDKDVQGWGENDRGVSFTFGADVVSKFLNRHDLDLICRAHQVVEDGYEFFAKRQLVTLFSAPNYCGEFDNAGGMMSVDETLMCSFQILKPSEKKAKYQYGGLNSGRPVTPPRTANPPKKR

B1: M110-(M1-E309): rat aorta M110 fragment, residues 1-309, released from GST-fusion protein with thrombin (protein)
chain: GSPGMKMADAKQKRNEQLKRWIGSETDLEPPVVKRQKTKVKFDDGAVFLAACSSGDTDEVLKLLHRGADINYANVDGLTALHQACIDDNVDMVKFLVENGANINQPDNEGWIPLHAAASCGYLDIAEFLIGQGAHVGAVNSEGDTPLDIAEEEAMEELLQNEVNRQGVDIEAARKEEERIMLRDARQWLNSGHISDVRHAKSGGTALHVAAAKGYTEVLKLLIQAGYDVNIKDYDGWTPLHAAAHWGKEEACRILVDNLCDMETVNKVGQTAFDVADEDILGYLEELQKKQNLLHSEKRDKKSPLIESTANMEA
- effect on the dephosphorylation of glycogen synthase by PP1c (PP1c): inhibited
- binding to myosin (myosin): did not bind to myosin
